Data reported in the supplement of paper PMC9112550, “Optimization of the antimicrobial peptide Bac7 by deep mutational scanning” (BMC Biology, 2022).

These sequences were tested on Escherichia coli TOP10 (assay: shrunken log2 fold change of peptide-encoding DNA abundance (4.5 h post-induction vs induction); higher = less antimicrobial activity (less host growth inhibition)). Conditions: time post-induction: 4.5 h; library: site-saturation at positions 5, 18, 19, 20.
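Also: peptides expressed intracellularly from a pBAD plasmid library in pooled LB shake-flask culture, induced with 0.3% L-arabinose, DNA abundance read by NGS, three biological replicates, DESeq2 with apeglm shrinkage.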

| Sequence | shrunken log2 fold change |
| --- | --- |
| RRIRIRPPRLPRPRPRPTQSPRP | 0.575 |
| RRIRSRPPRLPRPRPRPMRVPRP | 0.691 |
| RRIRPRPPRLPRPRPRPKNHPRP | -0.282 |
| RRIRARPPRLPRPRPRPKTRPRP | 0.689 |
| RRIRFRPPRLPRPRPRPDVDPRP | 0.0167 |
| RRIRIRPPRLPRPRPRPKAWPRP | 0.0719 |
| RRIRERPPRLPRPRPRPQFQPRP | -0.0426 |
| RRIRGRPPRLPRPRPRPNCQPRP | 0.458 |
| RRIRYRPPRLPRPRPRPSGTPRP | -0.175 |
| RRIRERPPRLPRPRPRPACVPRP | 0.24 |
| RRIRDRPPRLPRPRPRPSPNPRP | 0.122 |
| RRIRRRPPRLPRPRPRPDVTPRP | -0.0312 |
| RRIRWRPPRLPRPRPRPTSWPRP | 0.249 |
| RRIRERPPRLPRPRPRPLMMPRP | -0.263 |
| RRIRKRPPRLPRPRPRPQWWPRP | 0.243 |
| RRIRGRPPRLPRPRPRPGTTPRP | 0.379 |
| RRIRHRPPRLPRPRPRPQFQPRP | -0.511 |
| RRIRNRPPRLPRPRPRPAEMPRP | -0.00992 |
| RRIRCRPPRLPRPRPRPIIRPRP | -0.18 |
| RRIRMRPPRLPRPRPRPMSMPRP | 0.11 |
| RRIRTRPPRLPRPRPRPKAWPRP | 0.255 |
| RRIRERPPRLPRPRPRPGPNPRP | -0.106 |
| RRIRQRPPRLPRPRPRPMHTPRP | -0.026 |
| RRIRRRPPRLPRPRPRPDWYPRP | 0.0693 |
| RRIRHRPPRLPRPRPRPNVYPRP | -0.149 |

| Sequence | shrunken log2 fold change |
| --- | --- |
| RRIRFRPPRLPRPRPRPVFTPRP | -0.0271 |
| RRIRGRPPRLPRPRPRPHFRPRP | 0.199 |
| RRIRYRPPRLPRPRPRPEHMPRP | -0.304 |
| RRIRTRPPRLPRPRPRPFCRPRP | -0.0976 |
| RRIRSRPPRLPRPRPRPGMQPRP | -0.394 |
| RRIRERPPRLPRPRPRPEMLPRP | 0.0972 |
| RRIRHRPPRLPRPRPRPATSPRP | -0.00994 |
| RRIRVRPPRLPRPRPRPYGCPRP | -0.00989 |
| RRIRKRPPRLPRPRPRPGGRPRP | 1.91 |
| RRIRSRPPRLPRPRPRPYWIPRP | -0.267 |
| RRIRERPPRLPRPRPRPRNMPRP | -0.228 |
| RRIRGRPPRLPRPRPRPWMKPRP | 0.0546 |
| RRIRERPPRLPRPRPRPQINPRP | -0.586 |
| RRIRVRPPRLPRPRPRPIAEPRP | 0.127 |
| RRIRIRPPRLPRPRPRPPCMPRP | -0.169 |
| RRIRQRPPRLPRPRPRPQQRPRP | 0.0983 |
| RRIRWRPPRLPRPRPRPVEHPRP | -0.287 |
| RRIRTRPPRLPRPRPRPECGPRP | 0.51 |
| RRIRTRPPRLPRPRPRPRTFPRP | 0.0284 |
| RRIRVRPPRLPRPRPRPSCRPRP | -0.0227 |
| RRIRWRPPRLPRPRPRPPCHPRP | 0.0912 |
| RRIRNRPPRLPRPRPRPECTPRP | 0.00282 |
| RRIRTRPPRLPRPRPRPMSGPRP | -0.137 |
| RRIRVRPPRLPRPRPRPKIEPRP | 0.132 |
| RRIRQRPPRLPRPRPRPQGCPRP | -0.0562 |

| Sequence | shrunken log2 fold change |
| --- | --- |
| RRIRNRPPRLPRPRPRPMHNPRP | -0.286 |
| RRIRTRPPRLPRPRPRPHMFPRP | -0.0142 |
| RRIRLRPPRLPRPRPRPIEHPRP | -0.31 |
| RRIRGRPPRLPRPRPRPNKRPRP | 0.26 |
| RRIRERPPRLPRPRPRPPVGPRP | 0.0345 |
| RRIRCRPPRLPRPRPRPSRVPRP | 0.247 |
| RRIRTRPPRLPRPRPRPKIYPRP | -0.191 |
| RRIRARPPRLPRPRPRPYNDPRP | -1.28 |
| RRIRQRPPRLPRPRPRPMDGPRP | -0.199 |
| RRIRNRPPRLPRPRPRPGLWPRP | 0.737 |
| RRIRPRPPRLPRPRPRPTGIPRP | 0.726 |
| RRIRMRPPRLPRPRPRPECQPRP | 3.29 |
| RRIRHRPPRLPRPRPRPVCAPRP | 0.208 |
| RRIRQRPPRLPRPRPRPEVFPRP | 0.0304 |
| RRIRERPPRLPRPRPRPLNDPRP | -0.272 |
| RRIRIRPPRLPRPRPRPCINPRP | -0.355 |
| RRIRNRPPRLPRPRPRPIHQPRP | -0.189 |
| RRIRLRPPRLPRPRPRPQVIPRP | -0.136 |
| RRIRVRPPRLPRPRPRPYGWPRP | -0.0905 |
| RRIRQRPPRLPRPRPRPFKVPRP | -0.00664 |
| RRIRHRPPRLPRPRPRPHRHPRP | -0.2 |
| RRIRLRPPRLPRPRPRPMARPRP | 0.0339 |
| RRIRARPPRLPRPRPRPEQEPRP | 0.00961 |
| RRIRQRPPRLPRPRPRPPQIPRP | 0.238 |
| RRIRWRPPRLPRPRPRPFNDPRP | -0.153 |

| Sequence | shrunken log2 fold change |
| --- | --- |
| RRIRQRPPRLPRPRPRPAVFPRP | -0.0406 |
| RRIRVRPPRLPRPRPRPWACPRP | -0.191 |
| RRIRFRPPRLPRPRPRPEADPRP | 0.24 |
| RRIRRRPPRLPRPRPRPYNIPRP | -0.464 |
| RRIRMRPPRLPRPRPRPQQWPRP | 0.153 |
| RRIRSRPPRLPRPRPRPMCSPRP | -0.0814 |
| RRIRIRPPRLPRPRPRPNEQPRP | 0.0369 |
| RRIRLRPPRLPRPRPRPHINPRP | -0.645 |
| RRIRVRPPRLPRPRPRPKCSPRP | -0.065 |
| RRIRNRPPRLPRPRPRPPRRPRP | 0.518 |
| RRIRSRPPRLPRPRPRPRCKPRP | -0.134 |
| RRIRVRPPRLPRPRPRPDVMPRP | -0.00879 |
| RRIRHRPPRLPRPRPRPYEAPRP | -0.445 |
| RRIRWRPPRLPRPRPRPPPFPRP | 0.22 |
| RRIRPRPPRLPRPRPRPHQEPRP | 4.12 |
| RRIRTRPPRLPRPRPRPGYIPRP | -0.288 |
| RRIRYRPPRLPRPRPRPSEDPRP | -0.123 |
| RRIRSRPPRLPRPRPRPIQTPRP | -0.0822 |
| RRIRKRPPRLPRPRPRPFRKPRP | -0.304 |
| RRIRDRPPRLPRPRPRPYWYPRP | 0.00534 |
| RRIRMRPPRLPRPRPRPHFRPRP | 0.0286 |
| RRIRCRPPRLPRPRPRPGSCPRP | -0.0844 |
| RRIRFRPPRLPRPRPRPLDMPRP | -0.372 |
| RRIRIRPPRLPRPRPRPETKPRP | 0.0233 |
| RRIRNRPPRLPRPRPRPATTPRP | 0.272 |

| Sequence | shrunken log2 fold change |
| --- | --- |
| RRIRYRPPRLPRPRPRPYAWPRP | -0.14 |
| RRIRDRPPRLPRPRPRPYVQPRP | -0.13 |
| RRIRSRPPRLPRPRPRPRRLPRP | 0.193 |
| RRIRARPPRLPRPRPRPVSTPRP | -0.0272 |
| RRIRFRPPRLPRPRPRPSWKPRP | 0.206 |
| RRIRNRPPRLPRPRPRPRHKPRP | -0.369 |
| RRIRYRPPRLPRPRPRPRIGPRP | -0.471 |
| RRIRPRPPRLPRPRPRPFCGPRP | 0.00967 |
| RRIRERPPRLPRPRPRPHHTPRP | -0.268 |
| RRIRCRPPRLPRPRPRPQCDPRP | -0.264 |
| RRIRHRPPRLPRPRPRPWNEPRP | -0.171 |
| RRIRSRPPRLPRPRPRPENFPRP | -0.0342 |
| RRIRPRPPRLPRPRPRPTICPRP | 0.172 |
| RRIRHRPPRLPRPRPRPWMLPRP | -0.0885 |
| RRIRCRPPRLPRPRPRPLFHPRP | -0.429 |
| RRIRNRPPRLPRPRPRPHKCPRP | -0.0755 |
| RRIRSRPPRLPRPRPRPIHQPRP | -0.114 |
| RRIRPRPPRLPRPRPRPFINPRP | -0.382 |
| RRIRSRPPRLPRPRPRPQREPRP | -0.019 |
| RRIRFRPPRLPRPRPRPWMRPRP | 0.495 |
| RRIRERPPRLPRPRPRPEDGPRP | -0.0324 |
| RRIRSRPPRLPRPRPRPYGPPRP | -0.401 |
| RRIRSRPPRLPRPRPRPQGAPRP | 2.34 |
| RRIRLRPPRLPRPRPRPHWGPRP | 0.0796 |
| RRIRDRPPRLPRPRPRPEIYPRP | 0.0907 |

| Sequence | shrunken log2 fold change |
| --- | --- |
| RRIRARPPRLPRPRPRPCCCPRP | 0.689 |
| RRIRGRPPRLPRPRPRPWVTPRP | 0.0039 |
| RRIRWRPPRLPRPRPRPWGKPRP | 0.0784 |
| RRIRKRPPRLPRPRPRPFYHPRP | 0.0754 |
| RRIRMRPPRLPRPRPRPKQSPRP | 0.757 |
| RRIRTRPPRLPRPRPRPQIDPRP | -0.269 |
| RRIRLRPPRLPRPRPRPEDWPRP | 0.544 |
| RRIRIRPPRLPRPRPRPTYQPRP | -0.715 |
| RRIRHRPPRLPRPRPRPFPVPRP | 0.0399 |
| RRIRFRPPRLPRPRPRPNWIPRP | -0.426 |
| RRIRMRPPRLPRPRPRPLVSPRP | 0.162 |
| RRIRKRPPRLPRPRPRPIEFPRP | 0.0427 |
| RRIRARPPRLPRPRPRPTPAPRP | 1.05 |
| RRIRERPPRLPRPRPRPVCSPRP | -0.239 |
| RRIRFRPPRLPRPRPRPGMGPRP | 0.102 |
| RRIRFRPPRLPRPRPRPEATPRP | 0.565 |
| RRIRKRPPRLPRPRPRPYSVPRP | -0.114 |
| RRIRMRPPRLPRPRPRPSDCPRP | 0.206 |
| RRIRCRPPRLPRPRPRPNSGPRP | -0.224 |
| RRIRLRPPRLPRPRPRPEHRPRP | 0.283 |
| RRIRYRPPRLPRPRPRPQVWPRP | -0.0375 |
| RRIRCRPPRLPRPRPRPNREPRP | -0.134 |
| RRIRYRPPRLPRPRPRPVFKPRP | -0.238 |
| RRIRGRPPRLPRPRPRPYQAPRP | -0.119 |
| RRIRTRPPRLPRPRPRPWRNPRP | -0.253 |
